The target in data set [1] is Staphylococcus aureus CodY (SaCodY), full length (Staphylococcus aureus) (UniProt Q2FHI3). As to the kind of experiment: SEC-MALS; Superdex 75 10/300, 0.4 ml/min; 200 ul of 35 uM CodY, ligand-free, 20 mM Tris-HCl pH 8, 200 mM NaCl.
In data set [2] the target is T1, EfCodY (Enterococcus faecalis) (UniProt Q834K5).
T1 sequence: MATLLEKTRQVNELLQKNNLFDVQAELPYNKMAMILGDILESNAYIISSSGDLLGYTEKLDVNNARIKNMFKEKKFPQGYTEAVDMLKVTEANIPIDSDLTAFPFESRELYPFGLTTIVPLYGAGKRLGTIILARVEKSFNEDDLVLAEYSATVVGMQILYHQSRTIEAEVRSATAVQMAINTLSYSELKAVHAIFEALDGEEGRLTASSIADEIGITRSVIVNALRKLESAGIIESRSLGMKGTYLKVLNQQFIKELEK
As to the kind of experiment: BLI. To be noted: BLI: 20 mM Tris-HCl pH 8, 150 mM NaCl, 2 mM MgCl2, 0.1% NP-40, 25 C, 2 mM GTP and/or 10 mM Ile/Leu/Val as stated.

In general, stoichiometry N refers to the number of molecules, sites or subunits per partner or assembly. One may read the Kd as the constant that tells how readily two partners part at equilibrium. Low readings indicate higher affinity, high ones lower affinity.

In the case of “Staphylococcus aureus CodY (SaCodY), full length (from UniProt Q2FHI3 1-257) (natural protein)”, in data set [1], the stoichiometry N was found to be 2.
For single 15-nt consensus site, in data set [2] (10 mM Leu (implied), values printed as pair, assigned by order), the Kd worked out at 706 nM.
In turn, 26-nt overlapping sites returned a Kd in data set [2] of 710 nM.

The record behind these values is publication PMC10415144, “Structural insights into CodY activation and DNA recognition” (Nucleic Acids Research, 2023).
